T1: purified CDC45 S386A, O75419
T1 chain: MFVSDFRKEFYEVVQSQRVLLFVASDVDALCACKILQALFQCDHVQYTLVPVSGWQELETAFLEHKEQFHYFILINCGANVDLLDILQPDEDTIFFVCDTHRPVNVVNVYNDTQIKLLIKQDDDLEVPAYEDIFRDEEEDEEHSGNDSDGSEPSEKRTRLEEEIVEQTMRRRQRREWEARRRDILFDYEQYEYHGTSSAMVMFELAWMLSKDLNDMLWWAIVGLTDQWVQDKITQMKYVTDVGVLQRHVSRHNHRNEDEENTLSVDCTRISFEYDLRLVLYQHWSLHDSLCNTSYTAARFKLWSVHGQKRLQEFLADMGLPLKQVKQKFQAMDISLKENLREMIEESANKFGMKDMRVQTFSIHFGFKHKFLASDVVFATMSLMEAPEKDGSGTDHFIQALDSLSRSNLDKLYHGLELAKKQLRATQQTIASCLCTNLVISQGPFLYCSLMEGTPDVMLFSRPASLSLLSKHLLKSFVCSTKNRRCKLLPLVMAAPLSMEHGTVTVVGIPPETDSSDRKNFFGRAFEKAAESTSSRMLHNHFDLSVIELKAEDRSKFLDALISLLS

T2: purified wild-type CDC45, O75419
T2 chain: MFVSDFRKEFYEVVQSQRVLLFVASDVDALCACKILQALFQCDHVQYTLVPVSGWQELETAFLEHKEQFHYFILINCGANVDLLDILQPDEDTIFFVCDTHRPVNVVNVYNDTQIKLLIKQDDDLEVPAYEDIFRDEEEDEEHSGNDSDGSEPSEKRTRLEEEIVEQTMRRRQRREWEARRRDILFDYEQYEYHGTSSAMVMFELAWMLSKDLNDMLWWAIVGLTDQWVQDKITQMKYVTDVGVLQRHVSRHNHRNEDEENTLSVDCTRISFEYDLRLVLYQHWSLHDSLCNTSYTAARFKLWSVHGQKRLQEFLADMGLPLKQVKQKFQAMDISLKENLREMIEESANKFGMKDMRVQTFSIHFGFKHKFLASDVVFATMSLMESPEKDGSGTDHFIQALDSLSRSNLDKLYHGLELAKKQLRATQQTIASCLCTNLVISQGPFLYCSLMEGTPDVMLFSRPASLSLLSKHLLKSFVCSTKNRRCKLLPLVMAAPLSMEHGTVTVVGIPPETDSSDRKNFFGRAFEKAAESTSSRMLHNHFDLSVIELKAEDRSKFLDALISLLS

B1: His-PGK1 (wild type), bacterially purified, not phosphorylated (protein)
chain: MSLSNKLTLDKLDVKGKRVVMRVDFNVPMKNNQITNNQRIKAAVPSIKFCLDNGAKSVVLMSHLGRPDGVPMPDKYSLEPVAVELKSLLGKDVLFLKDCVGPEVEKACANPAAGSVILLENLRFHVEEEGKGKDASGNKVKAEPAKIEAFRASLSKLGDVYVNDAFGTAHRAHSSMVGVNLPQKAGGFLMKKELNYFAKALESPERPFLAILGGAKVADKIQLINNMLDKVNEMIIGGGMAFTFLKVLNNMEIGTSLFDEEGAKIVKDLMSKAEKNGVKITLPVDFVTADKFDENAKTGQATVASGIPAGWMGLDCGPESSKKYAEAVTRAKQIVWNGPVGVFEWEAFARGTKALMDEVVKATSRGCITIIGGGDTATCCAKWNTEDKVSHVSTGGGASLELLEGKVLPGVDALSNI
B2: purified PGK1 T378P kinase-dead mutant (protein)
chain: MSLSNKLTLDKLDVKGKRVVMRVDFNVPMKNNQITNNQRIKAAVPSIKFCLDNGAKSVVLMSHLGRPDGVPMPDKYSLEPVAVELKSLLGKDVLFLKDCVGPEVEKACANPAAGSVILLENLRFHVEEEGKGKDASGNKVKAEPAKIEAFRASLSKLGDVYVNDAFGTAHRAHSSMVGVNLPQKAGGFLMKKELNYFAKALESPERPFLAILGGAKVADKIQLINNMLDKVNEMIIGGGMAFTFLKVLNNMEIGTSLFDEEGAKIVKDLMSKAEKNGVKITLPVDFVTADKFDENAKTGQATVASGIPAGWMGLDCGPESSKKYAEAVTRAKQIVWNGPVGVFEWEAFARGTKALMDEVVKATSRGCITIIGGGDTAPCCAKWNTEDKVSHVSTGGGASLELLEGKVLPGVDALSNI

Tests used:
[1] = biological target: SUMO-PDHK1 (wild type), bacterially purified, Q15118
[2] = biological target: purified Beclin-1 S30A mutant, Q14457
[3] = biological target: T1, purified CDC45 S386A, O75419
[4] = biological target: purified PDHK1 S337A, Q15118
[5] = biological target: purified PDHK1 T338A (pE-SUMO PDHK1 T338A), Q15118
[6] = biological target: purified wild-type Beclin-1, Q14457
[7] = biological target: T2, purified wild-type CDC45, O75419

Sequence of SUMO-PDHK1 (wild type), bacterially purified, Q15118 (Q15118 whole entry, looked up): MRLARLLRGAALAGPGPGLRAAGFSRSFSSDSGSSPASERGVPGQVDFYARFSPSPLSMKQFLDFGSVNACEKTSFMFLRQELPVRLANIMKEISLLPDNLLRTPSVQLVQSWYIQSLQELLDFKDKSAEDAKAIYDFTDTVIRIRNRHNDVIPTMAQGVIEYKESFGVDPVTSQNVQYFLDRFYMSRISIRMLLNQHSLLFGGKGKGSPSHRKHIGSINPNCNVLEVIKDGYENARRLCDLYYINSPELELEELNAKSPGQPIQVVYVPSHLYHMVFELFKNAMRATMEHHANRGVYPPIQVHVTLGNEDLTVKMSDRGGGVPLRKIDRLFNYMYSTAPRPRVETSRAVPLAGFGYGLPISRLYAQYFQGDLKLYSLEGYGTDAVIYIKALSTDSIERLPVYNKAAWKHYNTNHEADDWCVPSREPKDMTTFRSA
Sequence of purified Beclin-1 S30A mutant, Q14457 (Q14457 whole entry S30A): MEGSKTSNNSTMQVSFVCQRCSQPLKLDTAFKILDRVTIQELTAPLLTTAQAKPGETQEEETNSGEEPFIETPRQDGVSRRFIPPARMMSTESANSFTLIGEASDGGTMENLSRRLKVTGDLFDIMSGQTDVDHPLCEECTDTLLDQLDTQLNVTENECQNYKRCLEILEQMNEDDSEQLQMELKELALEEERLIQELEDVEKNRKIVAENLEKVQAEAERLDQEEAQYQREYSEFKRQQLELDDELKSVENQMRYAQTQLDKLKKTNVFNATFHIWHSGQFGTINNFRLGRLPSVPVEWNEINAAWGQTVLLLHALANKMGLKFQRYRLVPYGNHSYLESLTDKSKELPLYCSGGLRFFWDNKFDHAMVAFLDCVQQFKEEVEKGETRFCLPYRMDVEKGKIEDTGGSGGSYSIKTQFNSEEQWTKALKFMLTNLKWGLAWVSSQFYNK
Sequence of purified PDHK1 T338A (pE-SUMO PDHK1 T338A), Q15118 (Q15118 whole entry T338A): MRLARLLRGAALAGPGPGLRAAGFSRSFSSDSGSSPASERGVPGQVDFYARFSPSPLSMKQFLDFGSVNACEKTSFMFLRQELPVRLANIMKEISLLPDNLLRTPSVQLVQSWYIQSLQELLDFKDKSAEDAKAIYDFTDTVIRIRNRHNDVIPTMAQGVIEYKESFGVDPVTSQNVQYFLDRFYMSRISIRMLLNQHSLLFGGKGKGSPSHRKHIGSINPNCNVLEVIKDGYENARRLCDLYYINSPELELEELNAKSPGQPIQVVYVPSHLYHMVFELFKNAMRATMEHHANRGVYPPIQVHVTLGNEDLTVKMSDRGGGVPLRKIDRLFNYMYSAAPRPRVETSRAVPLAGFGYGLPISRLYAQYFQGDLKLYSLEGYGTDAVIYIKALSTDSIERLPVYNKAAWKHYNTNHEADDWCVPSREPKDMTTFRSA
Sequence of purified wild-type Beclin-1, Q14457 (Q14457 whole entry, looked up): as the sequence (Q14457 whole entry S30A) above, with A30S counted along it
Sequence of purified PDHK1 S337A, Q15118 (Q15118 whole entry S337A): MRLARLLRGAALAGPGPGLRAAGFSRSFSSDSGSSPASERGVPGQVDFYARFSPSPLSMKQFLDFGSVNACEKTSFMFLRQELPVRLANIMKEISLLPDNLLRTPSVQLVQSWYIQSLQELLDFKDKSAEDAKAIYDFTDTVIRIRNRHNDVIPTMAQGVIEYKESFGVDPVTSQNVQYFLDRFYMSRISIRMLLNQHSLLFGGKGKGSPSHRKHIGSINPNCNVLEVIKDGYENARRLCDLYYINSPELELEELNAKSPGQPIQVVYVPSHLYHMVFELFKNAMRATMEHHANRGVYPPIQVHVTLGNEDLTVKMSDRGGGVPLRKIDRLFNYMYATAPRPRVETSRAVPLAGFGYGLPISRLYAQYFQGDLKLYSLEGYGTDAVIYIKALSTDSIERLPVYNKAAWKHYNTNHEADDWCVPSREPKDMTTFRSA

Row | Protein | in vitro phosphorylation with [γ32P]-ATP, autoradiography and anti-phospho-PDHK1 T338 antibody [1] | in vitro phosphorylation with [γ32P]-ATP, autoradiography and Western blot [2] | in vitro phosphorylation with [γ32P]-ATP, autoradiography and Western blot [3] | in vitro phosphorylation with [γ32P]ATP, autoradiography [4] | in vitro phosphorylation with [γ32P]-ATP, autoradiography and anti-phospho-PDHK1 T338 antibody [5] | in vitro phosphorylation with [γ32P]-ATP, autoradiography and Western blot [6] | in vitro phosphorylation with [γ32P]-ATP, autoradiography and Western blot [7]
1 | B1 | WT PGK1, but not a PGK1 T378P kinase-dead mutant, was able to phosphorylate WT PDHK1, but not PDHK1 T338A | Beclin-1 S30A mutant was largely resistant to phosphorylation by PGK1 | Purified wild-type PGK1 but not PGK1 kinase-dead (KD) mutant phosphorylated purified wild-type CDC45, but not CDC45 S386A | mutation of the adjacent PDHK1 S337A had no effect on PGK1-mediated PDHK1 phosphorylation | WT PGK1, but not a PGK1 T378P kinase-dead mutant, was able to phosphorylate WT PDHK1, but not PDHK1 T338A | Purified PGK1 phosphorylated purified wild-type Beclin-1 | Purified wild-type PGK1 but not PGK1 kinase-dead (KD) mutant phosphorylated purified wild-type CDC45, but not CDC45 S386A
2 | B2 | WT PGK1, but not a PGK1 T378P kinase-dead mutant, was able to phosphorylate WT PDHK1, but not PDHK1 T338A | – | – | – | – | – | Purified wild-type PGK1 but not PGK1 kinase-dead (KD) mutant phosphorylated purified wild-type CDC45, but not CDC45 S386A

— US20180011102
